Consider twelve molecules from patent US20110081339A1 (Amgen, published 2011).

Positions count from the first letter of the chain named. Where two headings read alike, the source gives them in different places.

Assay [1] has as its target cynomolgus IL-17RA expressed on cells (cynomolgus). As to the kind of experiment: cell-based or functional assay.
In assay [2] the target is T1, cynomolgus IL-17RA expressed on cells (cynomolgus).
T1 construct: whole, on cells; CHO cell line over-expressing cynomolgus IL-17RA (FACS); also called cyno IL-17RA; CHO-cynoIL-17RA
As to the kind of experiment: FACS; inhibition of biotin-huIL-17A binding; MFI. (A flow cytometer gives signals particle by particle.)

The target in assay [3] is T1, cynomolgus IL-17RA expressed on cells. In words: FACS; inhibition of biotin-huIL-17A binding; MFI. This is another data set of the same source.
From the text: The anti-IL-17RA antibodies were characterized. […] Anti-IL-17RA non-clonal hybridomas were selected for sub-cloning based on their performance in the CHO-IL-17RA FACS assay and HFF bioassay.
Assay [4] addresses Human IL-17RA full-length expressed on the surface of cells (human, UniProt Q96F46 33-866). As to the kind of experiment: cell-based or functional assay.
Assay [5] addresses T1, cynomolgus IL-17RA expressed on cells. In words: FACS; inhibition of biotin-huIL-17A binding; MFI. The source holds these as a separate data set.

B1: IL-17RA human mAb having the heavy and light chain variable sequences (AMH14/AML14) (antibody, IgG2, V domains shown)
VH: QVQLVQSGAEVKKPGASVKVSCKASGYTFTRYGISWVRQAPGQGLEWMGWISTYSGNTNYAQKLQGRVTMTTDTSTSTAYMELRSLRSDDTAVYYCARRQLYFDYWGQGTLVTVSS
VL: EIVMTQSPATLSVSPGERATLSCRASQSVSSNLAWFQQKPGQAPRPLIYDASTRATGVPARFSGSGSGTDFTLTISSLQSEDFAVYYCQQYDNWPLTFGGGTKVEIK
notes: Fully human, from IgG2 XenoMouse mice; Only variable domains are tied to it in the description; also called AM-14; AML14/AMH14
In the case of B1, the “IC50, cynomolgous IL-17A-induced IL-6 production from JTC-12 cells” value in assay [1] was approximately 1.2 nM. The same molecule showed an MFI in assay [2] of 10.

B2: IL-17RA mAb (AMH15/AML15) (antibody, V domains shown)
VH: QVQLVESGGGVVQPGRSLRLSCAASGFTFSSYGMQWVRQAPGKGLEWVAVIWYDGNKKYYADSVKGRFTISRDNSKNTLYLQMNSLRAEDTAVYYCARGRVRDYYYGMDVWGQGTTVTVSS
VL: B1 VL with A19V, T56A, V58I
notes: also called AM-15; AML15/AMH15
For B2, the MFI in assay [2] was 6.

B3: IL-17RA mAb (AMH12/AML12) (antibody, IgG2, V domains shown)
VH: B1 VH with F29L, R31S, S55K, R99K, Y102V
VL: B1 VL with V29I, N32S, F36Y, P46L, D50G, V58I, D70E, D82N
notes: From IgG2 XenoMouse mice; also called AM-12; AML12/AMH12
The molecule B3 registered an MFI in assay [3] of 6.

B4: AMH14/AML14 (hybridoma) (antibody, V domains shown)
VH: B1 VH
VL: B1 VL
For the molecule B4, the “IC50 (read off the curve) (IL-17A-induced GRO-alpha production from HFF cells; blocked ligand m20)” value in assay [4] was approximately 0.01 µg/mL.

B5: IL-17RA mAb (AMH17/AML17) (antibody, V domains shown)
VH: B1 VH with S17A, S25T, F29L, R31S, T53A, N59K, R99K, Y102V
VL: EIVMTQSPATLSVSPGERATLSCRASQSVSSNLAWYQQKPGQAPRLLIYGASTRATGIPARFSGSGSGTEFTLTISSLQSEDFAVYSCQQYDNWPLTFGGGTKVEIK
notes: From IgG2 XenoMouse mice; also called AM-17; AML17/AMH17
As to B5, the MFI in assay [3] was 8.

B6: IL-17RA mAb (AMH16/AML16) (antibody, IgG2, V domains shown)
VH: B1 VH with R31S, T53A, S55N, N59K, A79V, R99K, Y102V
VL: EIVMTQSPATLSVSPGERATLSCRASQSISTSLAWYQQKPGQAPRLLIYGTSTRATGIPARFSGSGSGTEFTLTISSLQSEDFAVYFCQQYDIWPLTFGGGTKVEIK
notes: From IgG2 XenoMouse mice; also called AM-16; AML16/AMH16
As to B6, the MFI in assay [3] was found to be 6.

B7: IL-17RA human mAb (AMH22/AML22) (antibody, IgG2, V domains shown)
VH: B1 VH with T53A
VL: B1 VL with A19V, T56A, V58I
notes: Fully human, from IgG2 XenoMouse mice; also called AM-22; AML22/AMH22
Turning to B7, in assay [5], the MFI came out at 18.

B8: IL-17RA mAb (AMH11/AML11) (antibody, V domains shown)
VH: QVQLVESGGGVVQPGRSLRLSCATSGITFSSYGMHWVRQAPGKGLEWVAVIWYDGSNKYYADSVKGRFTISRDNSKNTLYLQMNSLRAEDTAVYYCARDTKDYWGQGTLVTVSS
VL: EIVMTQSPATLSVSPGERATLSCRASQSVSSNLAWYQQKPGQAPRLLIYGASTRAAGIPARFSGGGSGTAFTLTISNLQSEDFAVYYCQHYINWPKWTFGQGTKVDIK
notes: also called AM-11; AML11/AMH11
In assay [5], B8 registered an MFI of 9.

B9: IL-17RA mAb (AMH13/AML13) (antibody, IgG2, V domains shown)
VH: B2 VH
VL: DIVMTQTPLSLSVTPGQPASIACKSSQSLLHSDGKTYLYWYLQKPGQPPQLLIYEVSTRFSGVPDRFSGSGSGTDFTLKISRVEAEDVGVFYCMQSIQLPLTFGGGTKVEIK
notes: From IgG2 XenoMouse mice; also called AM-13; AML13/AMH13
Consider B9, for which the MFI in assay [3] turned out to be 6.

B10: IL-17RA mAb (AMH1/AML1) (antibody, V domains shown)
VH: QVQLQESGPGLVKPSETLSLTCTVSGGSISNYYWNWIRQSPGKGLEWIGDIYYSGSTNYNPSLKSRVTISVDTSKNQFSLKLSSVTTADTAVYYCARDGELANYYGSGSYQFYYYYGMDVWGQGTTVTVSS
VL: DILMTQSPSSLSASVGDRVTITCRASQGIRNDLGWYQQKPGKAPKRLIYAASSLQSGVPSRFSGSGSGTEFTLTISSLQPEDFATYYCLQHNSNPFTFGPGTKVDIK
notes: also called AM-1; AML1/AMH1
B10: the MFI in assay [5] was 11.

B11: IL-17RA mAb (AMH5/AML5) (antibody, V domains shown)
VH: QVQLQESGPGLVKPSETLPLTCTVSGGSIRSYYWSWIRQPAGKGLEWIGRIYRSGNTIYNPSLKSRVTMSIDTSKNQFSLTLSSVTAADTAVYYCARENYSESSGLYYYYGMDVWGQGTTVTVSS
VL: B10 VL with L3Q, L54F, E70G, N94Y, F96P, P100Q, D105E
notes: also called AM-5; AML5/AMH5
B11 had an MFI in assay [5] of 9.

B12: IL-17RA mAb (AMH21/AML21) (antibody, IgG2, V domains shown)
VH: EVQLVESGGGSVQPGGSLRLSCAASGFTFSSYSMNWVRQAPGKGLEWVSIISSRSSIIHYADSVKGRFTISRDNAKNSLYLQMNSLRDEDTAVYYCARPKVGGGMDVWGQGTTVTVSS
VL: DIQMTQSPSSLSASVGDRVTITCRASQGISNYLAWYQQKPGKFPELLIYAASTLQSGVPSRFSGSGSGTDFTLTISSLQPEDVATYYCQKYNRAPFTFGPGTKVDIK
notes: From IgG2 XenoMouse mice; also called AM-21; AML21/AMH21
B12 returned an MFI in assay [2] of 6.
